167 variants from the RNAGym collection of RNA variant scans (doi:10.7554/elife.90254) can be followed below.

The labels stand for the following.
B1: LINE1-full (parent)
chain: UACGUAGGUGGUUUUCCCCUGAUAGUGCUAAGGGGGCCUGGAAGUUUGGACUGGGCAGAGCUCAACACAGCGUGGCAAAGUGGCUGUGGCUAGACUGCCUCUCUGGAUUCCUCGUCACUCAGCAGGGCAUCUCUGAGAGAAAUGCC

In this data set the parent is B1. Put plainly: self-cleavage, relative activity (ratio to wild type); higher = more cleavage; in vitro, sequencing; the parent is a self-cleaving ribozyme.
In the case of U20A A22G, the self-cleavage came to 0.69.

For C18A C37G, the self-cleavage came out at 0.99.

U20C A50G: the self-cleavage came out at 0.66.

Consider C18G A65U, for which the self-cleavage turned out to be 0.28.

As to U20C A31U, the self-cleavage stood at 1.08.

U20C A31G: the self-cleavage worked out at 1.16.

Consider C18U U26C, for which the self-cleavage came out at 2.16.

Regarding C17A U108C, the self-cleavage is 1.96.

For the variant C17G A141G, the self-cleavage amounted to 0.47.

Turning to C17U U104C, the self-cleavage was 1.33.

Consider C16A U104A, for which the self-cleavage is 0.47.

Take U20A G126A: the self-cleavage turned out to be 1.28.

For C19U A43U, the self-cleavage stood at 1.41.

In the case of U20A U62C, the self-cleavage was 0.06.

Turning to C19U U73A, the self-cleavage was 1.15.

For C19U U73C, the self-cleavage came out at 0.85.

As to C19U U91C, the self-cleavage came to 0.62.

For C19A G32A, the self-cleavage came to 0.91.

C19U C38A: the self-cleavage was found to be 1.13.

As for U20C A43U, the self-cleavage was 1.4.

As to U20C A43G, the self-cleavage came to 1.35.

For the variant U20A A129G, the self-cleavage turned out to be 0.97.

As for C17A U46C, the self-cleavage stood at 1.42.

Consider U15C U81C, for which the self-cleavage stood at 1.43.

For the variant U15C U81A, the self-cleavage is 2.14.

C17U A121G: the self-cleavage was 1.53.

Take U20A G44U: the self-cleavage was determined as 1.2.

Turning to U20A C56U, the self-cleavage amounted to 0.18.

In the case of U20C A107U, the self-cleavage was determined as 1.34.

Consider U20C A107G, for which the self-cleavage turned out to be 1.6.

Turning to U20A A42U, the self-cleavage amounted to 0.9.

For the variant U15C U143C, the self-cleavage is 1.29.

U20A U73C: the self-cleavage is 1.42.

As to U20A U73A, the self-cleavage was determined as 1.5.

U15C U132A: the self-cleavage was determined as 1.89.

For the variant U15C U132C, the self-cleavage is 1.47.

Turning to C18U A64U, the self-cleavage is 0.19.

In the case of C19U U46C, the self-cleavage was 1.

Consider U15G A65G, for which the self-cleavage came out at 0.1.

As to U20A G122U, the self-cleavage was 1.59.

Regarding C19A U20C, the self-cleavage is 1.04.

Consider C19A A138C, for which the self-cleavage turned out to be 1.07.

Regarding C19A A138G, the self-cleavage worked out at 0.72.

In the case of U20A U134A, the self-cleavage turned out to be 0.92.

Consider C16U U132C, for which the self-cleavage turned out to be 1.12.

C17U A77U: the self-cleavage worked out at 0.36.

As to U15C U73A, the self-cleavage turned out to be 1.68.

For U15C U73C, the self-cleavage was 1.8.

On to C19A U104C, for which the self-cleavage was determined as 1.14.

Turning to C19U A136G, the self-cleavage is 0.95.

On to U20A U29A, for which the self-cleavage was 1.05.

Take C19U A65G: the self-cleavage came out at 0.14.

As to C16U A138G, the self-cleavage is 2.06.

On to U20A A78U, for which the self-cleavage was found to be 1.34.

For the variant U15C U115C, the self-cleavage turned out to be 1.68.

In the case of C16U U134C, the self-cleavage is 2.6.

Regarding U20A U52C, the self-cleavage is 1.77.

With U20A U52A, the self-cleavage was found to be 0.54.

Take U20A U52G: the self-cleavage was 1.58.

As for C19U C84U, the self-cleavage came out at 0.22.

Consider C18U U108C, for which the self-cleavage was found to be 0.

With U20A A92U, the self-cleavage stood at 0.92.

For the variant U20A A92G, the self-cleavage turned out to be 0.05.

C17A A43G: the self-cleavage is 0.89.

In the case of C19U U102A, the self-cleavage turned out to be 1.19.

Regarding U20A U45C, the self-cleavage was 1.36.

Turning to C16U A124G, the self-cleavage worked out at 0.58.

On to C16A U20A, for which the self-cleavage was 1.64.

Consider C16A A67G, for which the self-cleavage came to 1.02.

Turning to C19U U115A, the self-cleavage came to 1.04.

As to C19G U52A, the self-cleavage came out at 1.16.

Consider C19U U47C, for which the self-cleavage amounted to 0.98.

Take U20A: the self-cleavage is 1.21.

With U20C, the self-cleavage was 1.37.

With C17U U115C, the self-cleavage came out at 1.48.

Take C17U A140U: the self-cleavage was found to be 1.11.

Consider C19A A59G, for which the self-cleavage is 0.13.

With C19G U26C, the self-cleavage is 1.2.

Take U20A G34A: the self-cleavage is 0.88.

Turning to C18U A30U, the self-cleavage was found to be 0.14.

In the case of C18U U45C, the self-cleavage was determined as 0.57.

On to U20A A24U, for which the self-cleavage is 1.41.

On to C16A U47G, for which the self-cleavage worked out at 0.75.

In the case of C18A U132A, the self-cleavage turned out to be 1.38.

As for U20A A64G, the self-cleavage was determined as 0.46.

For C18U A69C, the self-cleavage was 0.07.

As for U20A A77U, the self-cleavage amounted to 1.14.

For U20A A77C, the self-cleavage stood at 1.75.

In the case of U20A A77G, the self-cleavage worked out at 2.25.

Consider C16U U20A, for which the self-cleavage amounted to 1.02.

On to C17U A64G, for which the self-cleavage is 0.22.

For the variant U20C A78U, the self-cleavage amounted to 1.86.

As to U20C A65G, the self-cleavage worked out at 0.06.

C18U U102G: the self-cleavage amounted to 0.62.

On to C18U U102C, for which the self-cleavage amounted to 1.61.

Consider U15G U46C, for which the self-cleavage came to 0.59.

With C19U A69G, the self-cleavage worked out at 0.77.

As for C19A A78G, the self-cleavage is 1.53.

For the variant C19U G89A, the self-cleavage worked out at 0.11.

For C17U G49U, the self-cleavage came to 1.69.

Regarding U20C A117G, the self-cleavage worked out at 1.59.

For the variant C16U U91C, the self-cleavage was 0.74.

As to C19A A50G, the self-cleavage amounted to 1.48.

With U20A U91C, the self-cleavage was 0.65.

In the case of C16U A67G, the self-cleavage came out at 0.45.

Take U20A U102C: the self-cleavage was determined as 1.46.

In the case of C19U A141U, the self-cleavage was 1.

Take C19U A141G: the self-cleavage was 0.99.

Take U20A A79G: the self-cleavage was determined as 0.92.

For C19A A124G, the self-cleavage was found to be 0.58.

In the case of C18A U115C, the self-cleavage was found to be 1.85.

On to U20A U39C, for which the self-cleavage came to 0.93.

Take C19U G74A: the self-cleavage came out at 1.12.

C18U U96A: the self-cleavage was determined as 0.08.

For the variant U20A A121U, the self-cleavage was 1.55.

Turning to U20A A121G, the self-cleavage turned out to be 1.14.

On to C16U U96C, for which the self-cleavage amounted to 0.11.

Consider C16U U96A, for which the self-cleavage is 0.03.

Consider C17U A50G, for which the self-cleavage turned out to be 0.59.

Turning to U15G A50C, the self-cleavage turned out to be 1.37.

C18U A43G: the self-cleavage came to 2.02.

With U15C U119A, the self-cleavage stood at 1.5.

With U15C U134C, the self-cleavage stood at 1.43.

For C18A, the self-cleavage was found to be 1.39.

For C18G, the self-cleavage was determined as 1.36.

As to C18U, the self-cleavage came out at 1.17.

On to C17G U108C, for which the self-cleavage is 0.81.

For U20A U85C, the self-cleavage is 0.09.

With U15G A31G, the self-cleavage came to 0.79.

Take C18A A42G: the self-cleavage was 1.45.

Take C19U A129U: the self-cleavage came to 1.84.

As to C19A A142G, the self-cleavage was found to be 1.3.

Take U15G U96A: the self-cleavage turned out to be 0.16.

With U15G U96C, the self-cleavage was 0.

Consider U20C A59G, for which the self-cleavage is 0.11.

As to C17U U46A, the self-cleavage was found to be 0.72.

As to U20A U26C, the self-cleavage is 1.11.

Turning to C17U A59G, the self-cleavage was found to be 0.17.

For C18A U143C, the self-cleavage is 0.56.

U20C A92C: the self-cleavage was 0.14.

As to U15G A124U, the self-cleavage is 0.58.

Turning to U20A C145U, the self-cleavage was determined as 1.13.

For the variant C18U A79G, the self-cleavage was found to be 1.

In the case of C16A A136G, the self-cleavage was found to be 0.57.

In the case of C16U A117G, the self-cleavage is 0.57.

Regarding U20A U112C, the self-cleavage came out at 0.79.

With C19U G54A, the self-cleavage is 0.57.

On to U20A C95U, for which the self-cleavage came out at 0.13.

For U20A C95A, the self-cleavage is 0.09.

Turning to C19U U96A, the self-cleavage amounted to 0.07.

For the variant C19U A22G, the self-cleavage was 1.18.

With C16U U104C, the self-cleavage worked out at 1.03.

Turning to C16U G40U, the self-cleavage turned out to be 0.6.

For U15C U96A, the self-cleavage was 0.1.

As for U15C U96C, the self-cleavage is 0.23.

With U15C U100G, the self-cleavage came out at 1.84.

In the case of U15C U100A, the self-cleavage came out at 0.62.

For C16U U100A, the self-cleavage came out at 0.32.

For C19G G126A, the self-cleavage stood at 0.49.

For U20A A59U, the self-cleavage was found to be 0.7.

For U20A G36C, the self-cleavage was found to be 0.93.

For the variant U20A G36A, the self-cleavage turned out to be 0.94.

Regarding C18U U85G, the self-cleavage was found to be 0.23.

With C18U U85A, the self-cleavage was 0.13.

C17U U47A: the self-cleavage was determined as 1.34.

As for C16A U81A, the self-cleavage is 0.75.

As for C16A U52C, the self-cleavage came to 0.69.
